Measured values as given in patent US20110189776, “PROKARYOTIC RNAi-LIKE SYSTEM AND METHODS OF USE” (University of Georgia Research Foundation, Inc., published 2011).

Molecular target: native psiRNP containing Cmr1-1, Cmr1-2, Cmr2, Cmr3, Cmr4, Cmr5, Cmr6 (Pyrococcus furiosus, UniProt Q8U1S5;Q8U3V3;Q8U1S6;Q8U1S7;Q8U1S9;Q8U1T0;Q8U1T1 …)
Assay: EMSA; native gel Northern with psiRNA 7.01 probe; mobility shift lost on deproteinization
Details: tags: S-sepharose peak fraction, endogenous psiRNAs; other co-purifying proteins present

B1: psiRNA 7.01, 45 nt (ssRNA)
RNA: AUUGAAAGUUGUAGUAUGCGGUCCUUGCGGCUGAGAGCACUUCAG
binding result: binds
